Results on two substances are retold here after PMC12426278.

The target in test [1] is huCD147-Strep (soluble extracellular domain of human CD147, Strep-tag II) (human). Nature of the test: BLI; Octet Red96e; […] (20 μg/mL) […]; 25 mM HEPES, 150 mM NaCl pH 7.5, 0.04% Tween-20; global 1:1 model. In general terms: Biolayer interferometry detects binding as a change in optical thickness at a sensor tip.
In test [2] the target is huCD147mt-Strep (glycosylation-deficient soluble extracellular domain of human CD147, Strep-tag II) (human). The test is described as above.

With “[change] (soluble extracellular domain of H1N1 HA) (from UniProt P03452 18-528) (domain or fragment)”, the equilibrium dissociation constant (Kd) in test [1] was 0.7 µM; in test [2], 0.5 µM.

As to “[change] (soluble extracellular domain of H9N2 HA) (domain or fragment)”, the Kd is 0.31 µM in test [1] and 0.2 µM in test [2].

As usually defined, the Kd is the concentration at which binding is half-saturated. The low end stands for higher affinity, the high end for lower affinity.
